The subject of one assay is Jeko-1 MCL tumor. The experiment in a line: JeKo-1 fLuc+ tumor model, chimeric Tim4 receptor T cells plus ibrutinib, bioluminescence imaging. The class given is in vivo. Conditions: NSG mice, 1e6 Jeko-1 fLuc+ i.v.; ibrutinib 125 mg/kg daily for 3 days, then 1e6 T cells i.v. and 8 mg/kg ibrutinib daily; FIG. 18. How it is done: FIG. 18. […] NSG mice were inoculated i.v. with 1e6 Jeko-1 fLuc+ cells. 4 days after inoculation, mice were dosed daily with 125 mg/kg ibrutinib by oral gavage for 3 days. 7 days after inoculation, 1e6 chimeric Tim4 receptor-T cells were infused i.v. Following T cell infusion, mice were dosed daily with 8 mg/kg ibrutinib. N=10 mice per group. Chimeric Tim4 receptor-T cells were generated from healthy donor PBMCs. CD4+ and CD8+ T cells were isolated and mixed at a 1:1 ratio, then stimulated overnight with TransACT. Activated T cells were transduced with 5MOI of the indicated construct (CTX137, CTX140, or CTX156). Cells were used for Incucyte experiments 7 days after transduction. NSG mice were inoculated intravenously with 1e6 Jeko-1 fLuc+ cells. Mice were dosed with 125 mg/kg of Ibrutinib by oral gavage daily for 3 days, then transfused with 1e6 CER-T cells and dosed daily with 8 mg/kg Ibrutinib for the duration of the experiment. Tumor growth was monitored by bioluminescence imaging (BLI) (sum of photons from 8 sec exposure). n=10 for each group.

For assay [1], the system named is JeKo-1 mantle cell lymphoma cells. The experiment in a line: Incucyte killing of ibrutinib pre-treated JeKo-1 mCherry+ cells by chimeric Tim4 receptor T cells. Conditions: JeKo-1 pre-treated with 25 μM ibrutinib for 20 hours; 2:1 effector:target ratio; 0.5 μM ibrutinib present; FIG. 16. The class given is cell-based. The procedure:
FIG. 16. Chimeric Tim4 receptor killing of ibrutinib pre-treated JeKo-1 cells. JeKo-1 mantle cell lymphoma cells engineered to express mCherry were pre-treated with 25 μM ibrutinib for 20 hours. T cells transduced with chimeric Tim4 receptor (CTX137) or CTX156 (tEGFR control) were co-cultured at a 2:1 effector:target ratio with JeKo-1 cells mCherry+ cells in the presence of 0.5 μM ibrutinib. Surviving JeKo-1 mCherry+ cells were counted every 2 hours and normalized to the count at 2 h. Wells were plated in duplicate. Error bars represent +/−SEM.
Chimeric Tim4 receptor-T cells were generated from healthy donor PBMCs. CD4+ and CD8+ T cells were isolated and mixed at a 1:1 ratio, then stimulated overnight with TransACT. Activated T cells were transduced with 5MOI of the indicated construct (CTX137 or CTX156). Cells were used for Incucyte experiments 6 days after transduction. JeKo-1 cells engineered to express mCherry were treated with 25 μM BTK inhibitor ibrutinib for 20 hours then washed. T cells and target cells were incubated at a 2:1 effector:target ratio in the presence of 0.5 μM ibrutinib. Surviving JeKo-1 mChery+ cells were counted every 2 hours and normalized to the count at 2 hours. Wells were plated in duplicate.

Assay [2] has the same test system. Kind of assay: Incucyte co-culture of chimeric Tim4 receptor T cells with JeKo-1 mCherry+ cells. The assay is classed as cell-based. Conditions: 1:1 E:T ratio; T cells transduced with 5MOI; FIG. 17. How it is done:
FIG. 17. Multiple chimeric Tim4 constructs eliminate ibrutinib treated JeKo-1 cells. T cells generated from healthy donor PBMCs were transduced with 5MOI of CTX137, CTX140, CTX143, or CTX156 (tEGFR control). Cells were cocultured at a 1:1 E:T ratio with Jeko-1 mCherry+ cells. Surviving Jeko-1 mCherry+ cells were counted every 2 hours and normalized to the count at 2 h. Wells were plated in duplicate. Error bars represent +/−SEM.
Chimeric Tim4 receptor (CTX137, CTX140, or CTX143) modified T cells were generated from healthy donor PBMCs. CD4+ and CD8+ T cells were isolated and mixed at a 1:1 ratio, then stimulated overnight with TransACT. Activated T cells were transduced with 5MOI of the indicated construct. Cells were used for Incucyte experiments 6 days after transduction. JeKo-1 mCherry+ cells were plated with chimeric Tim4 receptor-T cells at a 1:1 effector:target (E:T) ratio. Surviving Jeko-1 mCherry+ cells were counted every 2 hours and normalized to the count at 2 h. Wells were plated in duplicate.

From US20240058446A1, “CHIMERIC TIM4 RECEPTORS AND USES THEREOF” (CERO THERAPEUTICS, INC., priority 2019, published 2024) come the findings set out here.

B1: CTX137: Chimeric Tim4 receptor (SEQ ID NO:68): Tim4 binding domain, CD28 transmembrane, CD28 costimulatory, DAP12 signaling domain; expressed in T cells (protein)
chain: MSKEPLILWLMIEFWWLYLTPVTSETVVTEVLGHRVTLPCLYSSWSHNSNSMCWGKDQCPYSGCKEALIRTDGMRVTSRKSAKYRLQGTIPRGDVSLTILNPSESDSGVYCCRIEVPGWFNDVKINVRLNLQRASTTTHRTATTTTRRTTTTSPTTTRQMTTTPAALPTTVVTTPDLTTGTPLQMTTIAVFTTANTCLSLTPSTLPEEATGLLTPEPSKEGPILTAESETVLPSDSWSSVESTSADTVLLTSKESKVWDLPSTSHVSMWKTSDSVSSPQPGASDTAVPEQNKTTKTGQMDGIPMSMKNEMPISQFWVLVVVGGVLACYSLLVTVAFIIFWVRSKRSRLLHSDYMNMTPRRPGPTRKHYQPYAPPRDFAAYRSYFLGRLVPRGRGAAEAATRKQRITETESPYQELQGQRSDVYSDLNTQRPYYK
modifications: Tim4 binding domain-CD28 transmembrane-CD28 costimulatory signaling domain-DAP12 signaling domain; SIGNAL (1)..(24)
notes: expressed in T cells
As for B1, in the assay on Jeko-1 MCL tumor, the “protection against JeKo-1 tumor (tumor growth by BLI)” value was “provide early protection”. Also, in assay [1], the “killing of ibrutinib pretreated JeKo-1 cells (surviving mCherry+ cells normalized to count at 2 h)” value was “induced killing”. In addition, the “elimination of JeKo-1 cells (surviving mCherry+ cells normalized to count at 2 h)” value in assay [2] is on record as “eliminate JeKo-1 mantle cell lymphoma cells”.

B2: CTX143: Chimeric Tim4 receptor (SEQ ID NO:45): Tim4 binding domain, modified IgG4 hinge, CD28 transmembrane, CD28 costimulatory, DAP12 signaling domain (protein)
chain: MSKEPLILWLMIEFWWLYLTPVTSETVVTEVLGHRVTLPCLYSSWSHNSNSMCWGKDQCPYSGCKEALIRTDGMRVTSRKSAKYRLQGTIPRGDVSLTILNPSESDSGVYCCRIEVPGWFNDVKINVRLNLQRASTTTHRTATTTTRRTTTTSPTTTRQMTTTPAALPTTVVTTPDLTTGTPLQMTTIAVFTTANTCLSLTPSTLPEEATGLLTPEPSKEGPILTAESETVLPSDSWSSVESTSADTVLLTSKESKVWDLPSTSHVSMWKTSDSVSSPQPGASDTAVPEQNKTTKTGQMDGIPMSMKNEMPISQESKYGPPCPPCPFWVLVVVGGVLACYSLLVTVAFIIFWVRSKRSRLLHSDYMNMTPRRPGPTRKHYQPYAPPRDFAAYRSYFLGRLVPRGRGAAEAATRKQRITETESPYQELQGQRSDVYSDLNTQRPYYK
modifications: Tim4 binding domain-modified IgG4 hinge-CD28 transmembrane-CD28 costimulatory signaling domain-DAP12 signaling domain; SIGNAL (1)..(24)
Take B2: the “elimination of JeKo-1 cells (surviving mCherry+ cells normalized to count at 2 h)” value in assay [2] is “eliminate JeKo-1 mantle cell lymphoma cells”.

B3: CTX140: Chimeric Tim4 receptor (SEQ ID NO:44): Tim4 binding domain, CD28 hinge, CD28 transmembrane, CD28 costimulatory, DAP12 signaling domain (protein)
chain: MSKEPLILWLMIEFWWLYLTPVTSETVVTEVLGHRVTLPCLYSSWSHNSNSMCWGKDQCPYSGCKEALIRTDGMRVTSRKSAKYRLQGTIPRGDVSLTILNPSESDSGVYCCRIEVPGWFNDVKINVRLNLQRASTTTHRTATTTTRRTTTTSPTTTRQMTTTPAALPTTVVTTPDLTTGTPLQMTTIAVFTTANTCLSLTPSTLPEEATGLLTPEPSKEGPILTAESETVLPSDSWSSVESTSADTVLLTSKESKVWDLPSTSHVSMWKTSDSVSSPQPGASDTAVPEQNKTTKTGQMDGIPMSMKNEMPISQIEVMYPPPYLDNEKSNGTIIHVKGKHLCPSPLFPGPSKPFWVLVVVGGVLACYSLLVTVAFIIFWVRSKRSRLLHSDYMNMTPRRPGPTRKHYQPYAPPRDFAAYRSYFLGRLVPRGRGAAEAATRKQRITETESPYQELQGQRSDVYSDLNTQRPYYK
modifications: Tim4 binding domain-CD28 hinge-CD28 transmembrane-CD28 costimulatory signaling domain-DAP12 signaling domain; SIGNAL (1)..(24)
With B3, the “protection against JeKo-1 tumor (tumor growth by BLI)” value in the assay with Jeko-1 MCL tumor was “provide early protection”. Further, in assay [2], the “elimination of JeKo-1 cells (surviving mCherry+ cells normalized to count at 2 h)” value was “eliminate JeKo-1 mantle cell lymphoma cells”.
